Results reported in patent publication US20030049796A1.

Biological target: Recombinant active caspase-9 (catalytic domain) (mammalian) (UniProt P55211)
Experiment: cell-based or functional assay

UniProt P55211, sequence (P55211 139-416 limits assumed): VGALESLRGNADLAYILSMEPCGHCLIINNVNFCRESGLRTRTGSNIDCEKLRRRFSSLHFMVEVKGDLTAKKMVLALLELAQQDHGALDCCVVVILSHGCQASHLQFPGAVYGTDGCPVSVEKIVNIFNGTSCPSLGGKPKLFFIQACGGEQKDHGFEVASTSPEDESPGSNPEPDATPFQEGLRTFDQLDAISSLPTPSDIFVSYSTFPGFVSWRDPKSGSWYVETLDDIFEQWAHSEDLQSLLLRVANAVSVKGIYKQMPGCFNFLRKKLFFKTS

- caspase-9 activity: AFC release from Ac-LEHD-AFC (100 uM); 0.2 uM caspase-9, 0.2-1.6 uM BmIAP, 37 C (fold molar excess): 8
Substance: GST-BmIAP (recombinant purified Bombyx mori inhibitor of apoptosis protein, glutathione S-transferase fusion)
